Biological target: mouse IL-17F/IL-17A heterodimer (mouse)
Assay: cell-based or functional assay

mouse IL-17F/IL-17A heterodimer (mouse), sequence (Q62386 26-158, chain 1 of 2): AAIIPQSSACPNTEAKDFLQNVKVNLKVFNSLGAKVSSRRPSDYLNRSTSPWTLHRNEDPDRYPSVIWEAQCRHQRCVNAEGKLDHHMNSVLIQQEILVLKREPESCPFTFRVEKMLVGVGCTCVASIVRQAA
mouse IL-17F/IL-17A heterodimer (mouse), sequence (Q7TNI7 29-161, chain 2 of 2, further chain): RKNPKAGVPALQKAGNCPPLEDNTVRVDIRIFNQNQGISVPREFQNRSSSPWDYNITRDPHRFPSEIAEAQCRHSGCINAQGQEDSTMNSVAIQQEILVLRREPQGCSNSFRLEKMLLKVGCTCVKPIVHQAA

decrease in CXCL1 production by MLE-12 cells induced by 200 ng/ml mIL-17F/IL-17A with 80 µg/ml antibody: 85%
Substance: anti-mouse IL-17A antibody 50104 (R&D Systems)

From patent US20080241130A1
